Test results: US20250327097A1, “ORGANISMS PRODUCING LESS CROTONIC ACID” (Global Bioenergies, priority 2021, published 2025)
Changes are numbered by the printed parent chain. In names and notes the source's numbering stands.

Tested on: 3-methylcrotonic acid
Type: biochemical, Yersinia frederiksenii
Set-up: key: “+” representing a low increase in activity; “++++” representing a high increase in activity

B1: I283T-P284D-N287P-S322T-N388M-E421V-R422F-C430N-L432F-L434W-S436N-H461T-dG462 (protein)
chain: MFLKSLREQINLLKRQGDLRIINRPVDSYLEAAAIIRRSTETKAPVPLMTNIKGYPGCSIVGGLAALSSNPEYPLSRVAMSLGLSTTASAQSIVQYLIDGLKKTPYLPVEIDSNSAPCKQNILRGEDASLAHFPIPQVHQHDGNRYVNTWGVFIVESPDGQWCNWSIQRVQYLNDRQMIALVFPSQHISDIWEEWVKIGKPMPYALVQGCEPIVPYIAGLPLLERNVNEAEYIGALYGKGIEVVKCETHDLRVPASSEVVIEGYFAITREGVEGPFGEFAGYTDNEPSLQPILSITAISWQDDPIWPVVAEGKPVDEYHTCTGIGDAAAIQNVLLTANLPVSFVWVPLYSACHLMIVSINRHWRQTHPDLTSEQLTKKVGDVIHQTRMSIKLPKIVVLDDDVDPADTESLLWALATRIHPVFKRYFYESNIFPWLNCYSEEERHNRKGKRVIIDALLPENTGAISSFDYAYPDDIKQRVLMHWETDFSHD
Activity relative to WT: ++++

B2: I283T-N285P-N287T-Q290E-S322T-N388M-K394R-dR422-C430A-L432F-L434W-S436N-dG462 (protein)
chain: B1 chain with D284P, N285P, P287T, Q290E, K394R, V421E, F422R, N430A, T461H
Activity relative to WT: ++++

B3: I283T-P284D-N287P-S322T-N388M-E421V-C430N-L432F-L434W-S436N-H461T-dG462-A463T (protein)
chain: B1 chain with F422R, A463T
Activity relative to WT: ++++

B4: I283T-P284D-N285M-N287T-S322T-N388M-K394R-C430A-L432F-L434W-S436N-C437M-G462P-A463P (protein)
chain: B1 chain with N285M, P287T, K394R, V421E, F422R, N430A, C437M, T461H, G462P, A463P
Activity relative to WT: ++++

B5: I283T-P284D-N285M-N287T-S322T-N388M-K394R-C430A-L432F-L434W-S436N-G462P-A463P-I464P (protein)
chain: B1 chain with N285M, P287T, K394R, V421E, F422R, N430A, T461H, G462P, A463P, I464P
Activity relative to WT: ++++

B6: I283T-P284D-N285M-N287T-S322T-N388M-K394R-C430A-L432F-L434W-S436N-G462T-A463P (protein)
chain: B1 chain with N285M, P287T, K394R, V421E, F422R, N430A, T461H, G462T, A463P
Activity relative to WT: ++++

B7: I283T-P284D-N287P-S322T-N388M-E421V-R422F-C430N-L432F-L434W-S436N-H461V-dG462 (protein)
chain: B1 chain with T461V
Activity relative to WT: ++++

B8: I283T-P284D-N285I-N287T-i287aS-S322T-N388M-K394R-C430A-L432F-L434W-S436N-G462P-A463P (protein)
chain: B1 chain with N285I, P287T, K394R, V421E, F422R, N430A, T461H, G462P, A463P
Activity relative to WT: ++++

B9: I283T-P284D-N287P-S322T-N388M-E421V-C430N-L432F-L434W-S436N-dG462 (protein)
chain: B1 chain with F422R, T461H
Activity relative to WT: ++++

B10: N287I-N388M-K394R-C430N-L432F-L434W-S436N (protein)
chain: B1 chain with T283I, D284P, P287I, T322S, K394R, V421E, F422R, T461H
Activity relative to WT: +

B11: I283T-P284D-N287P-S322T-N388M-E421V-R422F-C430N-L432F-L434W-S436N-dG462-A463T (protein)
chain: B1 chain with T461H, A463T
Activity relative to WT: ++++

B12: I283T-P284D-i284aP-N287P-S322T-N388M-C430N-L432F-L434W-S436N-dG462 (protein)
chain: B1 chain with V421E, F422R, T461H
Activity relative to WT: ++++

B13: N285M-N388M-K394R-C430N-L432F-L434W-S436N (protein)
chain: B1 chain with T283I, D284P, N285M, P287N, T322S, K394R, V421E, F422R, T461H
Activity relative to WT: +

B14: I283T-P284D-N287P-S322T-N388M-E421V-C430N-L432F-L434W-S436N-H461V-dG462-A463T (protein)
chain: B1 chain with F422R, T461V, A463T
Activity relative to WT: ++++

B15: I283T-P284D-N285M-N287T-L289H-S322T-N388M-K394R-C430A-L432F-L434W-S436N-G462P-A463P (protein)
chain: B1 chain with N285M, P287T, L289H, K394R, V421E, F422R, N430A, T461H, G462P, A463P
Activity relative to WT: ++++

B16: I283T-P284D-N287P-S322T-N388M-R422F-C430N-L432F-L434W-S436N-dG462 (protein)
chain: B1 chain with V421E, T461H
Activity relative to WT: ++++

B17: I283T-P284D-N287P-S322T-N388M-R422F-C430N-L432F-L434W-S436N-H461V-dG462-A463T (protein)
chain: B1 chain with V421E, T461V, A463T
Activity relative to WT: ++++

B18: I283T-P284D-N287P-S322T-N388M-E421V-R422F-C430N-L432F-L434W-S436N-H461V-dG462-A463T (protein)
chain: B1 chain with T461V, A463T
Activity relative to WT: ++++

B19: I283T-N285P-N287T-Q290E-S322T-N388M-K394R-C430A-L432F-L434W-S436N-dH461 (protein)
chain: B1 chain with D284P, N285P, P287T, Q290E, K394R, V421E, F422R, N430A, T461H
Activity relative to WT: ++++

B20: I283T-N285P-N287T-Q290E-S322T-N388M-K394R-C430A-L432F-L434W-S436N-dA463 (protein)
chain: B1 chain with D284P, N285P, P287T, Q290E, K394R, V421E, F422R, N430A, T461H
Activity relative to WT: ++++

B21: I283T-P284D-N287P-S322T-N388M-R422F-C430N-L432F-L434W-S436N-H461T-dG462-A463T (protein)
chain: B1 chain with V421E, A463T
Activity relative to WT: ++++

B22: I283T-N285P-N287T-Q290E-S322T-N388M-K394R-C430A-L432F-L434W-S436N-dG462 (protein)
chain: B1 chain with D284P, N285P, P287T, Q290E, K394R, V421E, F422R, N430A, T461H
Activity relative to WT: ++++

B23: I283T-P284D-N287P-S322T-N388M-E421V-R422F-C430N-L432F-L434W-S436N-H461T-dG462-A463T (protein)
chain: B1 chain with A463T
Activity relative to WT: ++++
